Test: yeast display, Sf9 membrane polyspecificity reagent, FACS + sequencing; frameworks hold sequencing errors
In short: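 Galactose induction of a Saccharomyces cerevisiae BJ5465 synthetic nanobody display library ran 36–48 hours. The cells were then stained for 1 hour at 4 °C with 10% biotinylated, detergent-solubilized Sf9 membrane reagent, pulled down on streptavidin microbeads and FACS-sorted into low and high (top ~1%) gates on expression and reagent-binding fluorescence. Labels for polyreactivity follow the gate of origin.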

Sequence | polyreactivity (PSR sort gate)
QVQLVESGGGLVQAGGSLRLSCAASGSIFSSYAMGWYRQAPGKERELVAAISGSGGSTFYADSVKGRFTISRDNAKNTVYLQMNSLKPEDTAVYYCAARYYWYGRAGKKHASYYYWGQGTQVTVSS | high polyreactivity
QVHLVESGGGLVQAGGNLRLICAASGSIFSDYTIGWYRQAPGKERELVAVITLSSGSTYFADSVKGRFTISRDNAKNTDYLQMNSLKPEDTAVYYCAADGWYYFGSGVFEYDYWRQGTQVTVSS | low polyreactivity
QVQLVESGGGLVQAGGSLRLSCAASGSTFGWYTMGWYRQSPGKERELVAAITSRGTRTSYADSVKGRFTISRDYAKNTVYLQMNSLKPEDTAVYYCAARVFRGLGEYYWGQGTQVTVSS | high polyreactivity
QVQLVESGGGLVQAGGSLRLSCAASGFIFYKNAKGWYRQAPGKERELVAAISQIGGTTYYADSVKGRFTISRDNAKNTVYVQMNSLKPEDTAVYYCAASRRVQSDYWGQGTQVTVSS | high polyreactivity
QVQIVESGGGLVQAGGSLRLSCAASGRIFDSYAMGWYRQAPGKERELVAAISQNSGSTYYADSVKGRFTISRDNEKNTVYLQMNSLKPEDTAVYYCAATRKTKRFGYWGQGTQVTVSS | high polyreactivity
QVQLVESGGGLVQAGGSLRLSCAASGSTFVYNAMGWYRQAPGKERELVAAISRRGGSTYYADSVKGRFTISRDNAKNTVYLQMNSLKPEDTAVYYCATDRVQDSYYWGQGTQVTVSS | high polyreactivity
QVQLVESGGGLVQAGGSLRLSCAASGRTYYGNAMGWYRQAPGKERELVAAITSGGGSTRYADSVKGRFTISRDNAKNTVYLQMNSLKPEDTAVYYCNATLGNFGYRRYSGHTRYYYWGQGTQVTVSS | high polyreactivity
QVQLVESGGGLVQAGGSLRLSCAASGLTFNAYAMGWYRQAPGKERELVADITTSDGSTFYADSVKGRFTISRDNAKNTVYLQMNSLKPEDTAVYYCNADAYGWYSGPWFKWLLWYDYWGQGTQVTVSS | low polyreactivity
QVQLVESGGGLVQAGGSLRLSCAASGFIFAYYTMGWYRQAPGKEREFVASITYSGGNTYYADSVKGRFTISRDNAKNTVYLQMNSLKPEDTAVYYCATRDGYSISTTGLMDYWGQGTQVTVSS | low polyreactivity
QVQLVESGGGLVQVGGSLRLSCAASGITLSYYAMGWYRQAPGKERELVASITVSRTSTYYADSVKGRFTISRDNAKNTVYLQMNSLKPEDTAVYYCAAYAYQYRFSGYGYWGQGTQVTVSS | low polyreactivity
QVQLVESGGGLVQAGGSLRLTCAASGRIFYNYAMGWYRQAPGKERELLAAISGSGGSTYYADSVKGRFTISRDNAKNSVYLQMNSLKPEDTAVYYCSTSCPQYYSRNFDYWGQGTQVTVSS | low polyreactivity
QVQLVESGGGLVQAGGSLRLSCAASGFLFYYNAMGWYRQAPGKERELVATSTSGGSTNYADSVKGRFTISRDNAKNTVYLQMNSLKPEDTAVYYCAAGHSWVYGYDYWGQGTQVTVSS | low polyreactivity
QVQLVDSGGGLVQAGGSLRLSCDASGSTFRGYAMGWYRKAPGKERELVAAISSRGARTHYADSLKGRFTISRDNAKNNVYLQMNSLKPEDTAVYYCNKRQVFFSTGEYEFDYWGQGTQVTVSS | low polyreactivity
QVQLVESGGGLDQSGGSLRLTCAASGFTFVINDMGRYIHAPGKEMEWVADITSGGDTYYADSVKGRFTISRDNAKNTVYLQSNRLKPEDTAVYYCAADIYPDWIYLLYGYWGQGTQVNVSS | low polyreactivity
QVQLVESVGGLVQAGGSLRLSCAASGSTFKYNAMGWYRQAHGKERELVAAISRRGGSTYYADSVKGRFTISRDNAKNTVYLQMNSLKPDETAVYYCAADIIRPVTVDYWGQGTQVTVSS | high polyreactivity
QVQVVESGGGLVQAGGSLRLSCAASGSTFRYYAMGWYRQAAGKERELVASITVSVGRTYYADSVKGRFTISRDYAKNTVYLQMNILKPEDTAVYYCAAPRGRLVRPPKYYYWGQGTQLTVSS | high polyreactivity

Sequence | polyreactivity (PSR sort gate)
QVQLVESGGGLVQAGGSLRLSCAASGRIFWDYAMGWYRQAPGKERELVAVITFSGDSTYYADSVKGRFTISRDNAKHTVYIQMNSLKPEDTAVYYCAAARAIRQFWYVATFEYWGQGTLVTVSS | low polyreactivity
QVQLVESGGGLVQAGGSLRLSCAASGLIFSGYTMGWYRQAPGKERELVAAISKSGGNTYYADSVTGRFTISRDNAKNTVYLQMNSLKPEDTAVYYCNRDVTYYRGYDYWGQGTQVTVSS | high polyreactivity
QDQLVESGGGLVQAGGSLRLSCAASGSIFSFYAMGWYSQATGKERELVAGIRWRGGTSTFYADSVKGRFTISRDNEKNTVYLQMNSLNPEDTAVYYCADKRRTGGNGYWGQGTQVTVSS | high polyreactivity
QVQLVESGGGLVQAGGSLRLSCAASGRIFPHYAKGWYRQAPGKERELVAAISSGGRTNYADSVKGRFTISRDNAKNTVYIQMNSLKPEDTAVYYYAVDDYVYEMDYWGQGTQVTVSS | high polyreactivity
QVQLVESGGGLVQAGGSLRLSCAASGSIFNWNTMGWYRQAPGKERELVAAITYDGGTTYYADSVKGRFTISRDYAKNNVYLQMISLKPEDTAVYYCAAEFLYKYGRYDYWGQGTQVTVSS | high polyreactivity
QVQIVESGGGLVQAGGSHRLSCAASGSTFDAYAMGWYRQEPGKEREMVAAISTRGGRTYYADSVKGRFTISRDNAKNTVYLQMNSLKPEDTAVYYCNAVVARVNVRGTPAFDYWGQGTQVTVSS | high polyreactivity
QVQLVESGGGLVQAGGSLRLICAASGSTFFANAMGWYRPAPGKERELVAVITYSGGSTYYADSVKGRFTISRYNAKNTVYLQMNSLKPEDTAVDYCAAKSYFRPYSYSYSYWGQGTQVTVSS | high polyreactivity
QVQLVESGGGLVQAGGSLRLSCAASGFTFVQYAMGWYRQAPGKERELVATISKSGGITYYADSVKGRFTISRDNAKNTVYLQMNSLKPEDTAVYYCAAAWYYSSRGFHATWGHDYWGQGTQVTVSS | low polyreactivity
QVQLVESGGCLVQAGGSLRLTCAASGFTLGFNAMGWYRQAPGKERELVAAITIGGTTYYADSVKGRFTLSRDNAKNTVYLQMNSLKPEDTAVYYCAASPVWWYDYWGQGTQVTVSS | low polyreactivity
QVQLVESGGGLVQAGGSLRLSCAASGRISYGYVMGWYRQAPGKERELVAAISRTGGNTYYADSVKGRFTISRDNAKNTVYLQMNSLKPEDTAVYYCAKVYKTGITQYDYWGQGTQVTVSS | high polyreactivity
QVQLVESGGGLVQAGGSLRLSCADSGFTFDYNAMGSYRQAPGKERELVAAISTGGSTKYADSVKGRFTISRDNAKNTVYLQMNSLKPEDTAVYYCNKQTTDRGFYDWKWSGFDYWGQGTQVTVSS | low polyreactivity
QVQLVQSRGGLVHAGGSLRFSSAATGITILRYAMGWYIQAPGKERELVAGISWDGGRTYNADSVKGRFTISRDNAKNTVFLQMNSMKPEDTEVYYCADKPSRYRVSLFDYWGHGTQVTVSS | low polyreactivity
QVQLVESGGGLGQAGGSLRLSCAASGFTFTYNDMGWYRQAPGKEREFVAAISSTGGSTYYADSVKGRFTISRDNAKNTVYLQMNSLKPEDTAVYYCAAEDSWYWDAWFDYWGQGTQVTVSS | low polyreactivity
QVQLVESGGGLVQAGGSLRLSCAASGFTFRTNVMGWYRQAPGKERELVAVITRDGGSTYYADSVKGRFTISRDNAKNTVYLQMNSLKPEDTAVYYCNAAAFINFILYDYWGQGTQVTVSS | high polyreactivity
QVQLVESGGGLVQAGGSLRLSCAASGRIIRIYTMGWYRQARGKERELVAAITKSGGSTSYADSVKGRFTISRDNAKNTVYLQMNSLKPEDTAVYYCNAKGWTRPPGYDYWGQGTQVTVSS | high polyreactivity

From the nanobody polyreactivity screen of Harvey et al. (2022)
